Assays:
[1] = tested on: 933W repressor S41A (bacteriophage 933W (lambdoid prophage of E. coli O157:H7 EDL933)); assay: EMSA
[2] = tested on: 933W repressor (cI) (bacteriophage 933W (lambdoid prophage of E. coli O157:H7 EDL933)); assay: competition EMSA
[3] = tested on: 933W repressor (cI) (bacteriophage 933W (lambdoid prophage of E. coli O157:H7 EDL933)); assay: EMSA
[4] = tested on: 933W repressor K46A (bacteriophage 933W (lambdoid prophage of E. coli O157:H7 EDL933)); assay: EMSA
[5] = tested on: 933W repressor (cI) (bacteriophage 933W (lambdoid prophage of E. coli O157:H7 EDL933)); assay: EMSA (direct and competition)
[6] = scale: fold affinity vs S41A on consensus

## consensus 2A (symmetric, G-C to A-T)
[1]; [6]
  binding signal: 1
[2]
  binding signal (fold lower affinity than consensus): > 6

## consensus 7'A (C-G to A-T at 7' only)
[2]
  binding signal (fold higher affinity than consensus): > 4

## consensus 4 G-C in one half-site
[3]
  binding signal (fold lower affinity than consensus): > 5

## consensus 3T (symmetric A-T to T-A)
[2]
  binding signal (fold higher affinity than consensus): > 3

## consensus 3G (symmetric A-T to G-C)
[2]
  binding signal (fold lower affinity than consensus): 2

## 933W OR1
[3]
  binding signal (fold higher affinity than consensus): 10

## consensus 4 G-5meC in one half-site
[3]; 5-methylcytosine paired with G at position 4
  binding signal (fold affinity vs consensus (identical)): 1

## consensus 6C (symmetric T-A to C-G)
[2]
  binding signal (fold higher affinity than consensus): > 2.5

## consensus 2T (symmetric, G-C to T-A)
[1]; [6]
  binding signal: 1
[2]
  binding signal (fold lower affinity than consensus): > 6

## consensus 3C (symmetric A-T to C-G)
[2]
  binding signal (fold lower affinity than consensus): > 6

## consensus 1A (symmetric C-G to A-T)
[2]
  binding signal (fold change in affinity vs consensus): < 2

## consensus 8G (central A-T to G-C)
[2]
  binding signal (fold lower affinity than consensus): 3

## nonspecific DNA (NS)
[4]
  Kd: 6.1 µM
[2]
  Kd: 6.1 µM

## 933W consensus operator
[1]; scale: fold lower affinity than wild-type repressor
  binding signal: > 10
[4]
  Kd: 6.1 µM
[5]
  Kd: 0.0048 µM

## consensus 5 C-C7G in one half-site
[3]; 7-deazaguanine replaces G at position 5
  binding signal (fold lower affinity than consensus): > 5

Source: PMC3317979
